From IntAct's records for PubMed 25543256

B1: Diphthamide biosynthesis protein 3 (Saccharomyces cerevisiae), Q3E840 (parent)
chain: MSTYDEIEIEDMTFEPENQMFTYPCPCGDRFQIYLDDMFEGEKVAVCPSCSLMIDVVFDKEDLAEYYEEAGIHPPEPIAAAA
partner: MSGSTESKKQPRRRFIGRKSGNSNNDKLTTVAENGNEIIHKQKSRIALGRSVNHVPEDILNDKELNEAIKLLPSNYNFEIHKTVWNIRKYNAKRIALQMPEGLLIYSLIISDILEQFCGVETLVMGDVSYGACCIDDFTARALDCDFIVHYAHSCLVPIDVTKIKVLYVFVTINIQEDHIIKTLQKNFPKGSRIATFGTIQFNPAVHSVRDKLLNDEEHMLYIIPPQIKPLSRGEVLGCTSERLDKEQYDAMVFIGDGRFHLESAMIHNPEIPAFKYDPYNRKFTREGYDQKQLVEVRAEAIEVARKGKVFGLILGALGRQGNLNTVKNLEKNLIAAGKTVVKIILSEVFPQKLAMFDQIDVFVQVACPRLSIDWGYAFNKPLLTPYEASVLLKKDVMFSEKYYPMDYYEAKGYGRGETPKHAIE
B2: Protein KTI13 (Saccharomyces cerevisiae), P31386 (parent)
chain: MSCVYAFGSNGQRQLGLGHDEDMDTPQRSVPGDDGAIVRKIACGGNHSVMLTNDGNLVGCGDNRRGELDSAQALRQVHDWRPVEVPAPVVDVACGWDTTVIVDADGRVWQRGGGCYEFTQQHVPLNSNDERIAVYGCFQNFVVVQGTRVYGWGSNTKCQLQEPKSRSLKEPVLVYDTGSVAVDYVAMGKDFMVIVDEGGRIVHASGRLPTGFELKQQQKRHNLVVLCMWTSIHLWNARLNTVESFGRGTHSQLFPQERLDFPIVGVATGSEHGILTTANQEGKSHCYNVYCWGWGEHGNCGPQKGSQPGLQLVGQYSGKPRVFGGCATTWIVL
partner: B1 chain
B3: Diphthamide biosynthesis protein 3 (Saccharomyces cerevisiae), Q3E840 (parent)
chain: B1 chain
partner: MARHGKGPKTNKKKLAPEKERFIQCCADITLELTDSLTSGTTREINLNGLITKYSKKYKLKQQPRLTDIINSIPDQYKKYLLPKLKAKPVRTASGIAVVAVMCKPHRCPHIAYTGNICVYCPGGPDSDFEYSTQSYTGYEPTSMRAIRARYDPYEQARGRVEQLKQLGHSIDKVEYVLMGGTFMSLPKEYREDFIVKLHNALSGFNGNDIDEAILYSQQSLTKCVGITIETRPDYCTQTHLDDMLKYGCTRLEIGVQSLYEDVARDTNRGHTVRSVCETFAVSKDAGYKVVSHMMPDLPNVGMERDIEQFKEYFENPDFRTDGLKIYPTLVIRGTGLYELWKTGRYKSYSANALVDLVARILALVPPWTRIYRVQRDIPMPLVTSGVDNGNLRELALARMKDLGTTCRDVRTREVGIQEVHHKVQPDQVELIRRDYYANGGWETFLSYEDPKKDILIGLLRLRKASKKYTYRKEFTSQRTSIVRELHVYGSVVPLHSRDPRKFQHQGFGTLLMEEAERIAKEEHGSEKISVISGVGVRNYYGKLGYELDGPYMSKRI
B4: Diphthamide biosynthesis protein 3 (Saccharomyces cerevisiae), Q3E840 (parent)
chain: B1 chain
partner: B2 chain

Variants of: B1
Conditions: with dph1_yeast DPH1, P40487

Variant | effect of a mutation on the interaction
C25S | disrupting interaction strength
C47S | disrupting interaction strength
C50S | disrupting interaction strength
C27S | disrupting interaction strength

Variants of: B2
Conditions: with dph3_yeast KTI11, Q3E840

Variant | effect of a mutation on the interaction
E296A | increasing interaction strength
W229A | decreasing interaction strength
H297A | increasing interaction strength

Variants of: B2
Conditions: with dph3_yeast KTI11, Q3E840
Remark: another data set of the same source

Variant | effect of a mutation on the interaction
W229A | disrupting interaction strength
W229C | disrupting interaction strength
W294A | decreasing interaction strength

Variants of: B2
Conditions: with dph3_yeast KTI11, Q3E840
Remark: another data set of the same source

Variant | effect of a mutation on the interaction
W229C | decreasing interaction strength

Variants of: B3
Conditions: with elp3_yeast ELP3, Q02908

Variant | effect of a mutation on the interaction
C50S | disrupting interaction strength

Variants of: B4
Conditions: with ats1_yeast ATS1, P31386

Variant | effect of a mutation on the interaction
E6A;E8A | decreasing interaction strength
D5A | decreasing interaction strength

Variants of: B4
Conditions: with ats1_yeast ATS1, P31386
Remark: another data set of the same source

Variant | effect of a mutation on the interaction
I7A;I9A | decreasing interaction strength
Y4A;D5A | decreasing interaction strength
Y4A | decreasing interaction strength

Variants of: B4
Conditions: with ats1_yeast ATS1, P31386
Remark: another data set of the same source

Variant | effect of a mutation on the interaction
D5A | disrupting interaction strength
E8A | decreasing interaction strength
Y4A | disrupting interaction strength
